This is an account of results in patent publication US20260125469A1 (Hoffmann-La Roche, published 2026).

What is called EC50 is the midpoint of the concentration-response curve. A low value points to greater potency. The Kd is a measure of binding affinity in units of concentration. Low readings indicate a tighter complex, high ones a looser complex. In general, koff refers to a measure of how fast the partners let go of each other. The term kon denotes the rate constant with which the complex forms.

For assay [1], the target named is T1, human CD3 on cells (CD3ε) (human, UniProt P07766 23-207).
T1 construct: CD3 complex as it stands on Jurkat cells or primary T cells; also called CD3-expressing Jurkat cells; CD3-expressing T cells
T1 sequence (P07766 23-207 limits assumed): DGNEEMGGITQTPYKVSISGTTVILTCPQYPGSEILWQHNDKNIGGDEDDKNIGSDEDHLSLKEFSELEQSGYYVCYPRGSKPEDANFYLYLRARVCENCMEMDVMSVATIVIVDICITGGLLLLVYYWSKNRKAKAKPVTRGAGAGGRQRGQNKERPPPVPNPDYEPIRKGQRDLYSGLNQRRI
Description: flow cytometry on Jurkat cells. The procedure: (§1) The binding of the CD19-TCB molecules prepared in Example 15 to human CD19- and CD3-expressing target cells was tested. Two CD19-expressing cell lines with different levels of CD19 expression were used. Nalm-6, an acute lymphoblastic leukemia (ALL) cell line with high CD 19 expression and Z-138 (Mantle cell lymphoma) with average expression levels. CD3-binding was assessed using immortalized T lymphocyte line (Jurkat cell line). Briefly, cells were harvested, counted, checked for viability and resuspended at 1×10⁶ cells/ml in FACS buffer (PBS+2% FCS+5 mM EDTA+0.25% sodium azide). […] Binding curves and the EC50 values related to binding were calculated using GraphPad Prism 7.

The target of assay [2] is T2, Human CD3ε stalk-Fc(knob)-Avi/CD3δ stalk-Fc(hole) (human).
T2 construct: Heterodimer of CD3 delta and CD3 epsilon ectodomains fused to human Fc with knob-into-hole; also called human CD3ε/δ; CD3 antigen
The experiment in a line: SPR, TCB captured by anti-PG antibody, human CD3ε/δ-Fc as analyte, 25°C. The procedure: (§2) SPR experiments were performed, using the CD19-TCB molecules prepared in Example 15, on a Biacore T200 instrument at 25° C. with HBS-EP+ as running buffer (0.01 M HEPES pH 7.4, 0.15 M NaCl, 0.005% Surfactant P20 (GE Healthcare, #BR-1006-69)). Anti-PG antibody (see Example 3) was directly immobilized by amine coupling on a C1 chip (GE Healthcare). The different TCB molecules were captured at 25 nM. Three-fold dilution series (in HBS-EP from 0.14 to 100 nM) of the CD19 antigen (CD19 extracellular domain (ECD)-Fc fusion; see SEQ ID NOs 99 and 100) or the CD3 antigen (see Example 3, SEQ ID NOs 41 and 42) were passed over the ligand at 30 μl/min for 240 s to record the association phase. The dissociation phase was monitored for 1500 s (CD19 antigen) or 800 s (CD3 antigen)s and triggered by switching from the sample solution to HBS-EP+. The chip surface was regenerated after every cycle using two injections of 10 mM glycine pH 2.1 for 60 sec. Bulk refractive index differences were corrected for by subtracting the response obtained on the reference flow cell (without captured TCB). The affinity constants were derived from the kinetic rate constants by fitting to a 1:1 Langmuir binding using the Biaeval software (GE Healthcare). The measurement was performed with three independent dilution series.
In general terms: SPR reads the build-up and loss of mass on a sensor chip optically.

Assay [3] addresses T3, human CD19 on cells (Nalm-6, Z-138) (human, UniProt P15391 20-556).
T3 sequence (looked up): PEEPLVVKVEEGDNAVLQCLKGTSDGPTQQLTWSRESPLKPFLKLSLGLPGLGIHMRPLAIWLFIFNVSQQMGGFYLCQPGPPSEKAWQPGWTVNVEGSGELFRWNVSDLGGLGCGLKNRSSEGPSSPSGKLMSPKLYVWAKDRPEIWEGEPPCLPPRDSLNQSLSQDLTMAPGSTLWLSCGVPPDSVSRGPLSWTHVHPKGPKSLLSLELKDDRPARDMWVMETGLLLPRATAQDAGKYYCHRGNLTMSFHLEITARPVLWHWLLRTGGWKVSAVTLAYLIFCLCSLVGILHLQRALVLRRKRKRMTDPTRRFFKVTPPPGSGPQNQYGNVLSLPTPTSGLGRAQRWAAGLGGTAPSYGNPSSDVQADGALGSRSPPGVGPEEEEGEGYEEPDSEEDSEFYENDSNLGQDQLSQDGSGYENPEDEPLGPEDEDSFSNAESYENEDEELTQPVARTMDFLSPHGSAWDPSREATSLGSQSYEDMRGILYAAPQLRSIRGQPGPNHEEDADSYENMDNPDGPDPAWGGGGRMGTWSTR
Description: cell-based or functional assay.

Assay [4] concerns the target T4, CD19 extracellular domain (ECD)-Fc fusion (human, UniProt P01857 104-328 = IgG part).
T4 construct: Monovalent CD19 ECD on a knob-into-hole Fc; also called CD19 antigen; recombinant human CD19
The experiment in a line: SPR, TCB captured by anti-PG antibody, CD19 ECD-Fc as analyte, 25°C. The procedure: as §2

Assay [5] has as its target T3, human CD19 on cells (Nalm-6, Z-138). The experiment in a line: flow cytometry on Nalm-6 cells. The procedure:
as §1

The target in assay [6] is T5, Cynomolgus CD3ε stalk-Fc(knob)-Avi/CD3δ stalk-Fc(hole) (cynomolgus).
T5 construct: also called cynomolgus CD3ε/δ
Description: SPR, monovalent IgG captured by anti-PG antibody, antigen as analyte, 25°C; bad fit quality per footnote. The method, then: (§3) SPR experiments were performed as described in Example 3, with the monovalent IgG molecules prepared in Example 19.
(§4) To analyze the interaction to CD3, IgG molecules were captured for 240 s at 50 nM with a flow rate of 5 μl/min. Human and cynomolgus CD3F stalk-Fc(knob)-Avi/CD36-stalk-Fc(hole) were passed at a concentration of 0.061-250 nM with a flow rate of […] through the flow cells for 300 s. The dissociation was monitored for 800 s.

The target in assay [7] is T2, Human CD3ε stalk-Fc(knob)-Avi/CD3δ …. The description is as above. The method, then:
as §3, §4

For assay [8] the target is unchanged. Description: SPR on immobilized human CD3ε/δ after stress, relative to sample kept at -80°C pH 6. The procedure:
All SPR experiments were performed on a Biacore T200 instrument (GE Healthcare) at 25° C. with HBS-P+ (10 mM HEPES, 150 mM NaCl pH 7.4, 0.05% Surfactant P20) as running and dilution buffer. Biotinylated human CD3ε/δ (see Example 3, SEQ ID NOs 41 and 42) as well as biotinylated anti-huIgG (Capture Select, Thermo Scientific, #7103262100) were immobilized on a Series S Sensor Chip SA (GE Healthcare, #29104992), resulting in surface densities of at least 1000 resonance units (RU). Anti-CD3 antibodies with a concentration of 2 μg/ml were injected for 30 s at a flow rate of 5 μl/min, and dissociation was monitored for 120 s. The surface was regenerated by injecting 10 mM glycine pH 1.5 for 60 s. Bulk refractive index differences were corrected by subtracting blank injections and by subtracting the response obtained from a blank control flow cell. For evaluation, the binding response 5 seconds after injection end was taken. To normalize the binding signal, the CD3 binding was divided by the anti-huIgG response (the signal (RU) obtained upon capture of the CD3 antibody on the immobilized anti-huIgG antibody). The relative binding activity was calculated by referencing each temperature stressed sample to the corresponding, non-stressed sample.
The experiment was performed as described in Example 4, using the monovalent IgG molecules prepared in Example 19.

B1: CD19-TCB, CD19(018) CD3 variant P035.093 (bispecific antibody, human IgG1, kappa, L234A L235A)
heavy 1: not shown
heavy 2: QVQLVQSGAEVKKPGASVKVSCKASGYTFTDYIMHWVRQAPGQGLEWMGYINPYNDGSKYTEKFQGRVTMTSDTSISTAYMELSRLRSDDTAVYYCARGTYYYGSALFDYWGQGTTVTVSSASTKGPSVFPLAPSSKSTSGGTAALGCLVEDYFPEPVTVSWNSGALTSGVHTFPAVLQSSGLYSLSSVVTVPSSSLGTQTYICNVNHKPSNTKVDEKVEPKSCDKTHTCPPCPAPEAAGGPSVFLFPPKPKDTLMISRTPEVTCVVVDVSHEDPEVKFNWYVDGVEVHNAKTKPREEQYNSTYRVVSVLTVLHQDWLNGKEYKCKVSNKALGAPIEKTISKAKGQPREPQVCTLPPSRDELTKNQVSLSCAVKGFYPSDIAVEWESNGQPENNYKTTPPVLDSDGSFFLVSKLTVDKSRWQQGNVFSCSVMHEALHNHYTQKSLSLSP
light 1: DIVMTQTPLSLSVTPGQPASISCKSSQSLENPNGNTYLNWYLQKPGQSPQLLIYRVSKRFSGVPDRFSGSGSGTDFTLKISRVEAEDVGVYYCLQLTHVPYTFGQGTKLEIKRTVAAPSVFIFPPSDRKLKSGTASVVCLLNNFYPREAKVQWKVDNALQSGNSQESVTEQDSKDSTYSLSSTLTLSKADYEKHKVYACEVTHQGLSSPVTKSFNRGEC
light 2: EVQLLESGGGLVQPGGSLRLSCAASGFTFSSYAMNWVRQAPGKGLEWVSRIRSKYNNYATYYADSVKGRFTISRDDSKNTLYLQMNSLRAEDTAVYYCVRASNFPASYVSYFAYWGQGTLVTVSSASVAAPSVFIFPPSDEQLKSGTASVVCLLNNFYPREAKVQWKVDNALQSGNSQESVTEQDSKDSTYSLSSTLTLSKADYEKHKVYACEVTHQGLSSPVTKSFNRGEC
notes: 2+1 IgG CrossFab, inverted; human IgG1 Fc, knob-into-hole, PGLALA
B1: the EC50 in assay [1] stood at 38 nM. In assay [2], the Kd was found to be 0.37 nM, the koff came to 0.00135 s⁻¹, the kon was 3.68e+06 M⁻¹ s⁻¹ and the t1/2 came to 8.6 min. Also, in assay [3], the “EC50 (pM) of tumor cell lysis, Nalm-6 target cells” value amounted to 0.9 pM and the “EC50 (pM) of tumor cell lysis, Z-138 target cells” value stood at 8.1 pM. In assay [4], this molecule showed a dissociation constant (Kd) of 1.27 nM, an off-rate constant (koff) of 0.000392 s⁻¹, a kon of 310000 M⁻¹ s⁻¹ and a t1/2 of 29.5 min. The molecule further registered a concentration for a half-maximal effect (EC50) in assay [5] of 1.2 nM.

B2: anti-CD3 antibody clone P004.042 in monovalent IgG format (antibody)
heavy: not shown
chain: DKTHTCPPCPAPEAAGGPSVFLFPPKPKDTLMISRTPEVTCVVVDVSHEDPEVKFNWYVDGVEVHNAKTKPREEQYNSTYRVVSVLTVLHQDWLNGKEYKCKVSNKALGAPIEKTISKAKGQPREPQVCTLPPSRDELTKNQVSLSCAVKGFYPSDIAVEWESNGQPENNYKTTPPVLDSDGSFFLVSKLTVDKSRWQQGNVFSCSVMHEALHNHYTQKSLSLSP
light: EVQLLESGGGLVQPGGSLRLSCAASGFQFDNYAMNWVRQAPGKGLEWVSRIRTKYNEYATYYADSVKGRFTISRDDSKNTLYLQMNSLRAEDTAVYYCVRASNFPQSYVSYFGYWGQGTLVTVSSASVAAPSVFIFPPSDEQLKSGTASVVCLLNNFYPREAKVQWKVDNALQSGNSQESVTEQDSKDSTYSLSSTLTLSKADYEKHKVYACEVTHQGLSSPVTKSFNRGEC
notes: also called monovalent IgG P004.042
Regarding B2, in assay [6], the affinity, expressed as Kd, was 0.439 nM; the koff was 0.00809 s⁻¹; the kon was found to be 1.85e+07 M⁻¹ s⁻¹; the t1/2 was 1.43 min. In assay [7], this molecule gave a dissociation constant Kd of 1.36 nM, a koff of 0.00852 s⁻¹, a kon of 6.28e+06 M⁻¹ s⁻¹ and a t1/2 of 1.36 min. For the same molecule, in assay [8], the “binding activity [%] after 2 weeks at pH 6.0/40°C” value is 101% and the “binding activity [%] after 2 weeks at pH 7.4/37°C” value came to 98%.
